As usually defined, the Kd is the equilibrium constant for the complex coming apart.

For data set [1], the target named is T1, GAPDH (Homo sapiens, UniProt P04406 1-335). Nature of the data set: EMSA, possibly a misprint for nM; 10 mM Tris-HCl pH 8.0, 50 mM KCl, 2 mM DTT, 0.5 mM EDTA, 0.1 mg/ml BSA, 0.1 mg/ml heparin, room temperature; FP 30 min with 2 nM RNA; EMSA 20 min plus 10% glycerol and RiboLock, 6% native gel at 4°C; mass photometry without BSA/heparin. Particulars: protein: recombinant; tags: N-terminal His; chain copies: 4; label: fluorescein (Roche RNA labeling mix, internal); single strand. In general terms: A gel shift assay detects complexes by their altered migration in electrophoresis.

In data set [2] the target is T1, GAPDH. Nature of the data set: EMSA; 10 mM Tris-HCl pH 8.0, 50 mM KCl, 2 mM DTT, 0.5 mM EDTA, 0.1 mg/ml BSA, 0.1 mg/ml heparin, room temperature; FP 30 min with 2 nM RNA; EMSA 20 min plus 10% glycerol and RiboLock, 6% native gel at 4°C; mass photometry without BSA/heparin. Particulars: protein: recombinant, tags: N-terminal His, chain copies: 4, single strand.
For data set [3], the target named is T1, GAPDH. Nature of the data set: fluorescence polarization; 10 mM Tris-HCl pH 8.0, 50 mM KCl, 2 mM DTT, 0.5 mM EDTA, 0.1 mg/ml BSA, 0.1 mg/ml heparin, room temperature; FP 30 min with 2 nM RNA; EMSA 20 min plus 10% glycerol and RiboLock, 6% native gel at 4°C; mass photometry without BSA/heparin. Conditions: protein: recombinant, tags: N-terminal His, chain copies: 4, single strand. In general terms: In fluorescence polarisation assays a small probe gives low polarisation when free and higher when bound to something large.

T1 sequence (P04406 whole entry): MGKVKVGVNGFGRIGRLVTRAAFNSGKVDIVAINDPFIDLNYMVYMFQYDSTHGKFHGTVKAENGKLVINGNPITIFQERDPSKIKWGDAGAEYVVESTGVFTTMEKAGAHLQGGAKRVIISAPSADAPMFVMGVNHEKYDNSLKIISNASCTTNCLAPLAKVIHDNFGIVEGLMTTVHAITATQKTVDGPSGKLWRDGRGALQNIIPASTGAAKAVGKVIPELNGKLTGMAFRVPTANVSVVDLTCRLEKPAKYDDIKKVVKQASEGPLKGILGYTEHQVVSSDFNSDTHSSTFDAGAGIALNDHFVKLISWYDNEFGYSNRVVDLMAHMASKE

B1: RPL13a 5'UTR (ssRNA)
RNA: GGGCCUCCUUUUCCAAGCGGCUGCCGAAGAUGGCGGAGGUGCAGGUCCUGGUGCUUGAUGGUCGAGGCCAUCUCCUGGGCCGCCUGGCGGCCAUCGUGGCUAAACAG
B1: the Kd with GAPDH [1] worked out at 887000 nM.

B2: GAPDH 5'UTR (ssRNA)
RNA: GGGCUCUCUGCUCCUCCUGUUCGACAGUCAGCCGCAUCUUCUUUUGCGUCGCCAGCCGAGCCACAUCGCUCAGACACC
With B2, in the data set with GAPDH [2] (label: fluorescein (Roche RNA labeling mix, internal)), the Kd was 400 nM.

B3: Rβ31 (ssRNA)
RNA: UGGCCAAUGCCCUGGCUCACAAAUACCACUG
Turning to B3, in the data set with GAPDH [3] (S17 legend says FITC-labeled RNA), the Kd was 1310 nM.

B4: TNFα-ARE38 (ssRNA)
RNA: GUGAUUAUUUAUUAUUUAUUUAUUAUUUAUUUAUUUAG
Take B4: the results for the Kd with GAPDH [2] and with GAPDH [3] were 217 nM and 167 nM, respectively.

The values above are taken from paper PMC12582121, “RNA binding of GAPDH controls transcript stability and protein translation in acute myeloid leukemia”.
